This data set is described as follows: pI of native glucagon and glucagon derivatives. Format: physicochemical. As to the method:
Accordingly, as described in Table 1 below, a native glucagon and glucagon derivatives having equivalent activity thereto were first prepared. Referring to WO 2016/108586, WO 2017/003191, and WO 2018/004283, the glucagon derivatives were synthesized, and pl and in vitro activity thereof were measured.

44 sequences from patent US20240197834A1, “PHARMACEUTICAL COMPOSITION FOR PREVENTING OR TREATING CHRONIC RENAL DISEASE INCLUDING GLUCAGON DERIVATIVE” (HANMI PHARM. CO., LTD., priority 2021, published 2024) can be followed below.

Bridge positions count the residues as written; N and C are the ends. Square brackets hold non-standard residues; d marks the D form. Ends that are not written are not given here. Aib = CC(C)(N)C(=O)O

On to “HSQGTFTSDYSKYLDCDRAQDFVQWLMNT (glucagon derivative) [SEQ ID NO: 2]”, for which the pl is 4.56. Next, “HSQGTFTSDYSKYLDCERAQDFVQWLMNT (glucagon derivative) [SEQ ID NO: 3]”: 4.66; “HSQGTFTSDYSKYLDSCDAQDFVQWLMNT (glucagon derivative) [SEQ ID NO: 4]”: 4.13; “HSQGTFTSDYSKYLDSCEADDFVQWLMNT (glucagon derivative) [SEQ ID NO: 6]”: 4.03. Next, “HSQGTFTSDYSKYLDSCEAQDFVQWLMNT (glucagon derivative) [SEQ ID NO: 5]”: 4.22. Next, “SQGTFTSDYSKYLDECRAKEFVQWLMNT (lactam 15-19) [SEQ ID NO: 32]”: 4.78.

In turn, “WXQGTFTSDYSKCLDERRAKDFVQWLMNT (W[Aib]QGTFTSDYSKCLDERRAKDFVQWLMNT; lactam 16-20) [SEQ ID NO: 30]” displayed a pl of 4.44. Consider “WXQGTFTSDYSKYCDERRAKEFVQWLMNT (W[Aib]QGTFTSDYSKYCDERRAKEFVQWLMNT; lactam 16-20) [SEQ ID NO: 34]”, for which the pl amounted to 6.21. Next, “WXQGTFTSDYSKYLDECRAKDFVQWLMNT (W[Aib]QGTFTSDYSKYLDECRAKDFVQWLMNT; lactam 16-20) [SEQ ID NO: 26]”: 4.68; “WXQGTFVSDYSKYLDECRAKDFVQWLMNT (W[Aib]QGTFVSDYSKYLDECRAKDFVQWLMNT; lactam 16-20) [SEQ ID NO: 28]”: 4.68; “YSQGTFTSDYSKYLDSCEADDFVQWLMNT (glucagon derivative) [SEQ ID NO: 7]”: 3.71. Next, “YXQGTFCSDYSKYLDERRAKDFVQWLMNT (Y[Aib]QGTFCSDYSKYLDERRAKDFVQWLMNT; lactam 16-20) [SEQ ID NO: 41]”: 6.03. Next, “YXQGTFCSDYSKYLDERRAKEFVQWLMNT (Y[Aib]QGTFCSDYSKYLDERRAKEFVQWLMNT; lactam 16-20) [SEQ ID NO: 38]”: 6.15; “YXQGTFCSDYSKYLDSRRAQDFVQWLMNT (Y[Aib]QGTFCSDYSKYLDSRRAQDFVQWLMNT) [SEQ ID NO: 42]”: 6.03. Take “YXQGTFTSDCSKYLDERRAKEFVQWLMNT (Y[Aib]QGTFTSDCSKYLDERRAKEFVQWLMNT; lactam 16-20) [SEQ ID NO: 36]”: the pl worked out at 6.21.

Sequence “YXQGTFTSDCSKYLDSRRAQDFVQWLMNT (Y[Aib]QGTFTSDCSKYLDSRRAQDFVQWLMNT) [SEQ ID NO: 43]” yielded a pl of 6.03. In the case of “YXQGTFTSDYSCYLDEKRAKEFVQWLMNT (Y[Aib]QGTFTSDYSCYLDEKRAKEFVQWLMNT) [SEQ ID NO: 45]”, the pl was found to be 4.78. Next, “YXQGTFTSDYSCYLDSRRAQDFVQWLMNT (Y[Aib]QGTFTSDYSCYLDSRRAQDFVQWLMNT) [SEQ ID NO: 13]”: 4.43. Next, “YXQGTFTSDYSKCLDEKRAKEFVQWLMNT (Y[Aib]QGTFTSDYSKCLDEKRAKEFVQWLMNT; lactam 16-20) [SEQ ID NO: 24]”: 6.21; “YXQGTFTSDYSKCLDERRAKDFVQWLMNT (Y[Aib]QGTFTSDYSKCLDERRAKDFVQWLMNT; lactam 16-20) [SEQ ID NO: 29]”: 6.15. Next, “YXQGTFTSDYSKYCDEKRAKEFVQWLMNT (Y[Aib]QGTFTSDYSKYCDEKRAKEFVQWLMNT; lactam 16-20) [SEQ ID NO: 23]”: 6.20.

As for “YXQGTFTSDYSKYCDERRAKEFVQWLMNT (Y[Aib]QGTFTSDYSKYCDERRAKEFVQWLMNT; lactam 16-20) [SEQ ID NO: 35]”, the pl was 6.2. The figure for “YXQGTFTSDYSKYLCEKRAKEFVQWLMNT (Y[Aib]QGTFTSDYSKYLCEKRAKEFVQWLMNT; lactam 16-20) [SEQ ID NO: 19]” is 8.12.

Sequence “YXQGTFTSDYSKYLCEKRAQDFVVWLMNT (Y[Aib]QGTFTSDYSKYLCEKRAQDFVVWLMNT) [SEQ ID NO: 15]” had a pl of 6.11.

The sequence “YXQGTFTSDYSKYLDCKRAKEFVQWLMNT (Y[Aib]QGTFTSDYSKYLDCKRAKEFVQWLMNT; lactam 17-21) [SEQ ID NO: 31]” came in with a pl of 8.12.

Sequence “YXQGTFTSDYSKYLDCKRAKEFVQWLMNT [SEQ ID NO: 14] (Y[Aib]QGTFTSDYSKYLDCKRAKEFVQWLMNT)” registered a pl of 8.12.

The sequence “YXQGTFTSDYSKYLDCRRAQVFVQWLMRT (Y[Aib]QGTFTSDYSKYLDCRRAQVFVQWLMRT) [SEQ ID NO: 16]” registered a pl of 9.11.

The sequence “YXQGTFTSDYSKYLDCVRAQDFVQWLMRT (Y[Aib]QGTFTSDYSKYLDCVRAQDFVQWLMRT) [SEQ ID NO: 17]” showed a pl of 6.03.

Sequence “YXQGTFTSDYSKYLDECRAKEFVQWLMNT (Y[Aib]QGTFTSDYSKYLDECRAKEFVQWLMNT; lactam 16-20) [SEQ ID NO: 20]” returned a pl of 4.78. Next, “YXQGTFTSDYSKYLDEKCAKEFVQWLMNT [SEQ ID NO: 11] (Y[Aib]QGTFTSDYSKYLDEKCAKEFVQWLMNT)”: 4.78; “YXQGTFTSDYSKYLDEKCAKEFVQWLMNT [SEQ ID NO: 21] (Y[Aib]QGTFTSDYSKYLDEKCAKEFVQWLMNT; lactam 16-20)”: 4.78. “YXQGTFTSDYSKYLDEKRAKCFVQWLMNT (Y[Aib]QGTFTSDYSKYLDEKRAKCFVQWLMNT; lactam 16-20) [SEQ ID NO: 25]”: the pl was 8.12. The figure for “YXQGTFTSDYSKYLDEKRAKEFVQWLMNTC (Y[Aib]QGTFTSDYSKYLDEKRAKEFVQWLMNTC; lactam 16-20) [SEQ ID NO: 12]” is 6.20; for “YXQGTFTSDYSKYLDEKRCKEFVQWLMNT (Y[Aib]QGTFTSDYSKYLDEKRCKEFVQWLMNT; lactam 16-20) [SEQ ID NO: 22]” it is 6.20.

“YXQGTFTSDYSKYLDERRAKEFVQWLMNTC (Y[Aib]QGTFTSDYSKYLDERRAKEFVQWLMNTC; lactam 16-20) [SEQ ID NO: 37]” displayed a pl of 6.21. Next, “YXQGTFTSDYSKYLDSCDADDFVVWLINT (Y[Aib]QGTFTSDYSKYLDSCDADDFVVWLINT) [SEQ ID NO: 10]”: 3.66; “YXQGTFTSDYSKYLDSCDAQDFVQWLINT (Y[Aib]QGTFTSDYSKYLDSCDAQDFVQWLINT) [SEQ ID NO: 8]”: 3.77. Turning to “YXQGTFTSDYSKYLDSCDAQDFVVWLINT (Y[Aib]QGTFTSDYSKYLDSCDAQDFVVWLINT) [SEQ ID NO: 9]”, the pl is 3.77. “YXQGTFTSDYSKYLDSRRACDFRLWLMNT (Y[Aib]QGTFTSDYSKYLDSRRACDFRLWLMNT) [SEQ ID NO: 18]” registered a pl of 8.15. The figure for “YXQGTFTSDYSKYLDSRRAQDFVQWLMNT (X non-natural residue; glucagon derivative; (2) Xaa is aminoisobutyric acid (Aib)) [SEQ ID NO: 33]” is 6.04; for “YXQGTFTSDYSKYLDSRRAQDFVQWLMNTC (glucagon derivative; (2) Xaa is aminoisobutyric acid (Aib)) [SEQ ID NO: 44]” it is 6.21. In turn, “YXQGTFVSDCSKYLDERRAKDFVQWLMNT (Y[Aib]QGTFVSDCSKYLDERRAKDFVQWLMNT; lactam 16-20) [SEQ ID NO: 39]” displayed a pl of 6.15. Next, “YXQGTFVSDYSKYLDECRAKDFVQWLMNT (Y[Aib]QGTFVSDYSKYLDECRAKDFVQWLMNT; lactam 16-20) [SEQ ID NO: 27]”: 4.68; “YXQGTFVSDYSKYLDERRAKDFVQWLMNTC (Y[Aib]QGTFVSDYSKYLDERRAKDFVQWLMNTC; lactam 16-20) [SEQ ID NO: 40]”: 6.15.
